Test results from publication PMC4814874.

How the values were obtained:
[1] = target: MART1 peptide on HLA-A*02:01 (human); experiment: IL-2 ELISPOT; Jurkat 76 without CD8; T2 + graded peptide; full-length, on cells
[2] = target: MART1 peptide on HLA-A*02:01 (human); experiment: structural avidity; Jurkat 76 without CD8; graded A2/MART1 multimer; full-length, on cells
[3] = target: MART1 peptide on HLA-A*02:01 (human); experiment: IL-2 ELISPOT; Jurkat 76/CD8; T2 + graded peptide; full-length, on cells
[4] = target: MART1 peptide on HLA-A*02:01 (human); experiment: structural avidity; Jurkat 76/CD8; graded A2/MART1 multimer; full-length, on cells

EC50 of peptide [1]: 0.363 µg/mL | EC50 of multimer [2]: 0.022 µg/mL | EC50 of peptide [3]: 0.102 µg/mL | EC50 of multimer [4]: 0.013 µg/mL
Substance: DMF5
